Assay results as given in patent US20160375112A1 (priority 2013, published 2016).

Conditions: human, in vivo

Substance: botulinum toxin
- botulinum toxin-related reactions (hypersensitivity, after injection and before ALDARA): No botulinum toxin-related reactions
